Literature values as cited in paper PMC2709459 (Biochimica et biophysica acta, 2008).

Target: C5aR
Details: C5aR in transfected CHO cells

B1: C5a: complement C5a fragment, anaphylatoxin ligand of C5aR (protein, UniProt P01031 678-751, looked up)
C5a anaphylatoxin: TLQKKIEEIAAKYKHSVVKKCCYDGACVNNDETCEQRAARISLGPRCIKAFTECCVVASQLRANISHKDMQLGR
modifications: C5a anaphylatoxin
  Kd: 10 nM
